assay: yeast display, Sf9 membrane polyspecificity reagent, FACS + sequencing; frameworks hold sequencing errors
Procedure, shortened: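 Galactose-induced (36–48 hours) yeast carrying a synthetic nanobody display library were exposed to 10% biotinylated, detergent-solubilized Sf9 membrane reagent at 4 °C for 1 hour. FACS followed streptavidin microbead enrichment, using low and high (top ~1%) gates for expression (anti-HA) and reagent binding (streptavidin). Colony PCR, MiSeq 2 × 250 sequencing and CDR-length filtering followed. Labels for polyreactivity reflect the gate of origin.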

Sequence	polyreactivity (PSR sort gate)
QVHLVESGGGLVQAGGSLRLSCAASGSIFHKNAMGWYRQAPGKERELVAAITSGGTTYYADSVKGRFTISRDNAKNTVYLLMNSLKPEDTAVYYCNAAKFLYRHGFLSAGDMYYWGQGTQVTVSS	high polyreactivity
QVHLVESGGGLVQAGGSLRLSCAASGSIFKYYAMGWYRQAPGKETELVAAISSGGTTNYADSVKGRFTISRDNAKNTVYFQMNSLKPEDTEVYYCAAYSTYFRRRKWGYDYWGQGTQVTVSS	high polyreactivity
QVHLVESGGGLVQAGGSLRLSCAASGSIFLRYAMGWYRKAPGKERVLFAGITSSGGSTYYADSVQGRFTISRDNAKNTVYLQMNSLKPEDTAVYYCARGLYRIYSPVRYGYWGQGTQVTVSS	high polyreactivity
QVHLVESGGGLVQAGGSLRLSCAASGSIFSYYAMGWYRQAPGKERELVAAISQSGGSTYYSDSVKGRFTISRDNAKNTVYLQMNSLKPEDTAVYYCNSGRGTFKRYTALQYWGQGTQVTVSS	low polyreactivity
QVHLVESGGGLVQAGGSLRLSCAASGSIIGLYAMGWYRQAPGKERELVAYITGGGSTYYADSVKGRFTISRDIAKNTVYLQMNSLKPEDTAVYYCNKRGTEIGYDYWGQGTQVTVLS	low polyreactivity
QVHLVESGGGLVQAGGSLRLSCAASGSILGGNAMGWYRQAPGKERELVAAITFSGGGTYYADSVKGRFTISRDNAKNTVYLQMNSLKPEDTAVYYCAADKDGYTYEFDYWGQGTQVTVSS	low polyreactivity
QVHLVESGGGLVQAGGSLRLSCAASGSISTNYPMGWYRPAPGKERQLVAAISSSGGSTYYADSVKGRFTISRDNAKYTVYLQMNSLKPEDTAVYYCAATYWGRAYQGYRNLRYGYWGQGTQVTVSS	high polyreactivity
QVHLVESGGGLVQAGGSLRLSCAASGSNFARNAMGWYRHAPGKERELVAAITYSGGRTYYADSVKGRFTISRDNAKNTVYLQMNSLKPEDTAVFYCAVKSFSGHGDYWGQGTEVTVSS	low polyreactivity
QVHLVESGGGLVQAGGSLRLSCAASGSNYSYYGMGWYRQAPGKERELVAAITDGDGTNYADSVKGRFTISRDNAKNTVYLQMNSLIPEDTAVYYCNRDFWYGVSPGREFYLYDYWGQGTLVTVSS	low polyreactivity
QVHLVESGGGLVQAGGSLRLSCAASGSTFAGNTMGWYRQAPGKERELVASITSDGSTDYADSVKGRFTISRDNAKNTVYLQMNSLKPEDTAVYYCAIARGLSKMDSWGQGTQVTVSS	low polyreactivity
QVHLVESGGGLVQAGGSLRLSCAASGSTFGTNAMGWYRQAPGKERELVARINSSASTTYADSVKGRFTISRDNAKNTVYLQMNSLKPEDTAVYYCAKSSLNIYDYWGQGTQVTVSS	high polyreactivity
QVHLVESGGGLVQAGGSLRLSCAASGSTFGWYAMGWYRPSPGKERELVAAIRSNGGSTYYADSLKGRFTISRDNAKNTVYLQMNSLKPEDTAVFYCAARGSPSKHHWYDYWGQGTQVTVSS	low polyreactivity
QVHLVESGGGLVQAGGSLRLSCAASGSTFLLNAMGWYRQATGKERELVAGITGSGGRTYYADSVKGRFTISRDNAKNTVYLQMNSLKPEDTAVYYCAAYRNLYWYQHEYWGQGTLVTVSS	low polyreactivity
QVHLVESGGGLVQAGGSLRLSCAASGSTFQSNAMGWYRQAPGKERELVATITQSGATTYYADSVKGRFTISRDNAKNTVYLQMNSLNPEDTAVYYCNVDTYQKRWFWLDLDGGYWGQGTQVTVSS	low polyreactivity
QVHLVESGGGLVQAGGSLRLSCAASGSTFRPYAMGWYRQAPGKERELVAAITGSGGSTYYADSVKGRFTISRDNAKNTVYLQMISLKPEDTAVYYCNAVSTWRYYYWGQGTQVTVSS	high polyreactivity
QVHLVESGGGLVQAGGSLRLSCAASGSTFSYYAMGWYRQAPGKERELVAAISRSGGSTYYPDSVKGRFTISRDNAKNTVYLQMNSLKPEDTADYSCNRYYYTVTREFDYWGQGSQVTVSS	low polyreactivity
QVHLVESGGGLVQAGGSLRLSCAASGSTFYENAMGWYIQAPGKERELVAGISRGGGSTYYADSVKGRFTISRDNAKNTVYLQMNSLKPEDSAVYYCAAGSRVQGGYWGQGTQVTVSS	low polyreactivity
QVHLVESGGGLVQAGGSLRLSCAASGSTFYYNAMGWYRLAPGKERELVASISYSGDSTYYADSVKGRFTISRVNAKNTVYLQMNSLKPEDTAVYYCNASTSFRSHLGFLYDYWGQGTQVTVSS	high polyreactivity
QVHLVESGGGLVQAGGSLRLSCAASGYTFKRNAMGWYRQAPGKERELVAAINIRGSSTYYADSVKGRFTISRDNAKNTVYLQMNSLKPEDTAVYYCNAVPRYGYYWGQGTQVTVSS	high polyreactivity
QVHLVESGGGLVQAGGSLRLSCAASGYTIRRNAMGWYRQAPGKERELVAAITSGGSTDYADSVKGRFTISRDNAKNTVYLQMISLKPEDTAVYYCAADGIYRGAWSTVYESPGYDYWGQGTQVTVSS	low polyreactivity
QVHLVESGGGLVQAGGSLRLSCAATGSTFHYYAMGWYRQAPGKEMELVAAISSSGVSTYYADSVKGRFTISRDNAKNTVYLQMNSLKPEDTAVYYCNSASVFHYRWYYYWGHGTQVTVSS	high polyreactivity

Sequence	polyreactivity (PSR sort gate)
QVHLVESGGGLVQAGGSLRLSCAAYGRIFPLYTMGWYRQAPGKEREFVAAISRTGGRTYYADSVKGRFTISRDNAKNTVYLQMNSLKPEDTAVYYCAAPYFGKRQIREYYWGQGTQVTVSS	high polyreactivity
QVHLVESGGGLVQAGGSLRLSCADYGSNLYYKAMGWYRQAPGKEMQVVAAISTGGRTNYADSVKGRFTISRDNAKNTVYLQMNSLKPEDSAVYYCAAETTTEITDTDYDYWGQGTQVTVSS	low polyreactivity
QVHLVESGGGLVQAGGSLRLSCAPSGFIFDYYTMGWYRQAPGKESELVAAITWSGGRTNYADSVKGRFTISRDNAKYTVYLQMNSLKPEDTAVYYCNARRRARGAPYYLYGYSGQGTQVTVSS	low polyreactivity
QVHLVESGGGLVQAGGSLRLSCAPSGRTFEQNAMGWYRQAPGKERELVASITSVGSTDYADSVKGRFTISRDNAKNTVYLQMNSLKPEDTAVYYCAKTLGSQKYDFDYWGQGTQVTVSS	low polyreactivity
QVHLVESGGGLVQAGGSLRLSCASSGGIFVTYAMGWYRQAPGKERELVAAITSGDSTYYADSVKGRFTISRDNAKNTVYLQMNSLKPEDTAVYYCAVGSTDRVSAQGSYFTYDYWGQGTQVTVSS	low polyreactivity
QVHLVESGGGLVQAGGSLRLSCASSGIIFKTYAMGWYRQAPGKERELVAAISSGGTTYYADSVKGRFTISRDNAKNTVYLQMNSLKPEDTAVYYCAARGYRSGGGYNYWGHGTQVTVSS	high polyreactivity
QVHLVESGGGLVQAGGSLRLSCASSGYIIKYNAMGWYRPAPGKERELVAAISSIGGRTYYADSVKGRFTISRDNAKNTVYLQMNRLKPEDTAVYYCNAVGGRYTGWRYDDWGQGTQVTVSS	high polyreactivity
QVHLVESGGGLVQAGGSLRLSCASTGFTFSRNTMGWYRQPPGKERELVARISASGGSTYYADSVKGRFTISRDNAKNTVYLQMNSLKPEDTAVYYCAAEGFYRSSPVRTYIGYDYWGQGSQVTVSS	high polyreactivity
QVHLVESGGGLVQAGGSLRLSCPASGFTFDNYAMGWYRQPPGKERELVAAINWSGGRTYYADSVKGRFTISRDNAKNTVYLQMNSLKPEDTAVYYCGVPGYVRMDYWGQGTQVTVSS	high polyreactivity
QVHLVESGGGLVQAGGSLRLSCPASGITFEHNAMGWYRQSPGKERELVAAIRWSGGSTYYADSVKGRFTISRDYAKYTVYLQMNSLKPEDTAVYYCAAYKPSTRRYDYWGQGTQVTVSS	high polyreactivity
QVHLVESGGGLVQAGGSLRLSCSASGFTFGSNAMGWYRQAPGKERELVAAINYSGLRTYYADSVKGRFTISRDNAKNTVYLQMNSLKPEDTAVYDCAARTSIVTRLRYGYWGQGTQVTVSS	high polyreactivity
QVHLVESGGGLVQAGGSLRLSCSASGRTFGWNVMGWYRQAPGKERELVAAISGSGGSTYYADSVKGRFTISRDNAKTTVYLQMNSLKPEDTAVYYCAALYGPGREYDYWGQGTQVTVSS	low polyreactivity
QVHLVESGGGLVQAGGSLRLSCSASGSTFNTYAMGWYRQAPGKERELVAAITRGGGGTYYADSVKGRFTISRDNAKNTVYLQMNSLKPEDTAVYYCADKFRYSKYGYWGQGTQVTVSS	high polyreactivity
QVHLVESGGGLVQAGGSLRLSCSASGSTFYAYAMGWYRQARGKERELVARIRWRGGRSYYADSVKGRFTISRDNAKNTVYLQMHSLKPEDTAVYYCAARLYGRYDSQDNYWGQGTQVTVSS	high polyreactivity
QVHLVESGGGLVQAGGSLRLSFAASGRTFLRYDMGCYIQAPGKERELVAADSVKGRFTISRDNAKNTVYLQMNSLKAEDPAVYYCAADSTEYTGDASYIGYDYWGQGTHVTVSS	high polyreactivity
QVHLVESGGGLVQAGGSLRLSSAASGFTFPWYAMGWYRQAPGKERELVATITRGGSTYYADSVKGRFTISRDNAKNTVYLQMNSLKPEDTAVYYCAVTYWRYHSYSPYDYWGQGTQVTVSS	high polyreactivity
QVHLVESGGGLVQAGGSLRLSSAASGSIFYLNAMGWYRQAPGKERELVATISNGGSTNYADSVQGRFTISRDNAKNTVYLQMNSLKPEDTAVYYCDAASGGTVVGEGDYWGQGTQVTVSS	low polyreactivity
QVHLVESGGGLVQAGGSLRLSSAASGSTFPVYAMGWYRQAPGKERELVASISSGGSTYYADSVQGRFTISRDNAKNSVYFQKNSLKPEDTAVYYCAKDPWVDSFVIYDDWGQGTEVTVSS	low polyreactivity
QVHLVESGGGLVQAGGSLRLSSAASGSTFYKNAMGWYRQAPGKERELVAGISRRGGRTYYADSVKGRFTISRDNANNTVYLQMNSLKPEDTAVYYCNTGHEEDEYDYWGQGTQVTVSS	low polyreactivity
QVHLVESGGGLVQAGGSLRLSSAAYGRTFKYNAMGWYRQAPGKRKELVAAISSGGSTYYADSVKGRFTISRDNAKKTVYFQMNSLKPEDTAVYYCAVRNTKSYWFGYWGQGTQVTVSS	high polyreactivity
